The source of these data is patent US20110076730A1 (priority 2006, published 2011).

The format of data set [1] is biochemical. To be noted: read-out: D-xylose Km.
The format of data set [2] is biochemical. To be noted: read-out: Cofactor Km.
The format of data set [3] is biochemical. To be noted: pH 8.3.
Data set [4] is classed as biochemical. Conditions: read-out: L-arabinose Km.

Like-named read-outs stand apart in the source and are kept apart here.

B1: Xdh-C. crescentus: D-xylose dehydrogenase (Xdh) from Caulobacter crescentus CB15, protein RC001012 in the ERGO database (protein)
chain: MSSAIYPSLKGKRVVITGGGSGIGAGLTAGFARQGAEVIFLDIADEDSRALEAELAGSPIPPVYKRCDLMNLEAIKAVFAEIGDVDVLVNNAGNDDRHKLADVTGAYWDERINVNLRHMLFCTQAVAPGMKKRGGGAVINFGSISWHLGLEDLVLYETAKAGIEGMTRALARELGPDDIRVTCVVPGNVKTKRQEKWYTPEGEAQIVAAQCLKGRIVPENVAALVLFLASDDASLCTGHEYWIDAGWR
modifications: Caulobacter crescentus CB15
notes: D-xylose dehydrogenase (Xdh) from Caulobacter crescentus CB15, protein RC001012 in the ERGO database
In the case of B1, the results for the Km in data set [1], in data set [2] and in data set [4] were 99 µM, 130 µM and 34000 µM, respectively. Besides, the “D-fructose, D-galactose, D-mannose, 2-deoxy-D-glucose, D-glucose-6-phosphate and D-ribose as substrates” value in data set [3] is reported as “not the substrates”. Moreover, the “Oxidation of D-xylose, L-arabinose and D-glucose into corresponding sugar acid” value in data set [3] was “could be oxidized”.

B2: Xdh-B. fungorum: D-xylose dehydrogenase (Xdh) from Burkholderia fungorum LB400, protein RBU11704 in the ERGO database (protein)
chain: MYLLSYPEQVDYPMSYAIYPSLSGKTVVITGGGSGIGAAMVEAFARQGARVFFLDVAEDDSLALQQSLSDAPHPPLFRRCDLRSVDAIHSAFAGIVEIAGPIEVLVNNAGNDDRHEVDAITPAYWDERMAVNLRHQFFCAQAAAAGMRKIGRGVILNLGSVSWHLALPNLAIYMSAKAGIEGLTRGLARDLGAAGIRVNCIIPGAVRTPRQMQLWQSPESEAKLVASQCLRLRIEPEHVARMALFLASDDASRCSGRDYFVDAGWYGE
modifications: Burkholderia fungorum LB400
notes: D-xylose dehydrogenase (Xdh) from Burkholderia fungorum LB400, protein RBU11704 in the ERGO database
As for B2, the Km in data set [1] came out at 970 µM; in data set [2], 260 µM; in data set [4], 43000 µM. Also, the “D-fructose, D-galactose, D-mannose, 2-deoxy-D-glucose, D-glucose-6-phosphate and D-ribose as substrates” value in data set [3] is on record as “not the substrates”. For the same molecule, in data set [3], the “Oxidation of D-xylose, L-arabinose and D-glucose into corresponding sugar acid” value was “could be oxidized”.

Usually Km stands for the substrate concentration at which the rate is half of its maximum.
